Source: patent US20170247463A1

Key:
hFcγRIIIa158V = test: -; range printed as 0.20~0.28
hFcγRIIa131H = test: -
hFcγRI = test: -; range printed as 0.12~0.28

Kd (hFcγRIIIa158V): 0.2 µM
Kd (hFcγRIIa131H): 0.85 µM
Kd (hFcγRI): 0.00012 µM
Substance: IgG 1
